Residue numbers refer to the chain shown, from its start.
B1: HA-tagged activated MEK5 (MEK5DD), MEK5β splice isoform with aspartate substitutions of serine-222 and threonine-226 (protein)
chain: MEQQVNGQLIEPLQIFPRACKPPGERNIHGLKVNTRAGPSQHTSPVVSDSLPSNSLKKSSAELRKILANGQMNEQDIRYRDTLGHGNGGTVYKAYHVPSGKILAVKVILLDITLELQKQIMSELEILYKCDSSYIIGFYGAFFVENRISICTEFMDGGSLDVYRKIPEHVLGRIAVAVVKGLTYLWSLKILHRDVKPSNMLVNTSGQVKLCDFGVSTQLVNDIAKDYVGTNAYMAPERISGEQYGIHSDVWSLGISFMELALGRFPYPQIQKNQGSLMPLQLLQCIVDEDSPVLPLGEFSEPFVHFITQCMRKQPKERPAPEELMGHPFIVQFNDGNATVVSMWVCRALEERRSQQGPP
B2: HA-tagged wild-type MEK5 (MEK5WT), MEK5β splice isoform (protein)
chain: B1 chain with D222S, D226T
B3: endogenous ERK5 immunoprecipitated from neonatal rat cardiomyocytes (protein)
chain: AEPLKEEDGEDGSGEPPGRVKAEPVHTAASVVAKNLALLKARSFDVTFDVGDEYEIIETIGNGAYGVVSSARRRLTGQQVAIKKIPNAFDVVTNAKRTLRELKILKHFKHDNIIAIKDILRPTVPYGEFRSVYVVLDLMESDLHQIIHSSQPLTLEHVRYFLYQLLRGLKYMHSAQVIHRDLKPSNLLVNENCELKIGDFGMARGLCTSPAEHQYFMTEYVATRWYRAPELMLSLHEYTQAIDLWSVGCIFGEMLARRQLFPGKNYVHQLQLIMMVLGTPSPAVIQAVGAERVRAYIQSLPPRQPVPWETVYPGADRQALSLLGRMLRFEPSARISAAAALRHPFLAKYHDPDDEPDCAPPFDFAFDREALTRERIKEAIVAEIEDFHARREGIRQQIRFQPSLQPVASEPVCPDVEMPSPWAPSGDCAMESPPPALPPCSGPAPDTVDLTLQPAPPASELAPPKREGAISDNTKAALKAALLKSLRSRLRDGPSAPLEAPEPRKPVTAQERQREREEKRRRRQERAKEREKRRQERERKERGAGTLGGPSTDPLAGLVLSDNDRSLLERWTRMARPPVPAPAPAPAPTPKPSSAQPTSPPNGPVSQSTAPLQPAGSIPGPASQPVCPPPGPVPQPAGPVPAPLQTAPSTSLLASQSLVPPSGLPGSGAPEVLPYFPSGPPPPDPGLTPQPSTSESPDVNLVTQQLSKSQVEDPLPPVFSGTPKGSGAGYGVGFDLEEFLNQSFDMGVADGPQDGQADSASLSASLLADWLEGHGMNPADIESLQREIQMDSPMLLSDLPDLQEP

Key:
[1] = biological target: GST-ERK5KMΔ, a truncated, catalytically inactive form of ERK5 with lysine-83 mutated to methionine, fused to glutathione-S-transferase
[2] = biological target: glutathione-S-transferase (GST) fused to MEF2C amino acids 204-321

Row | Protein | IP kinase assay: 32P phosphorylation of GST-ERK5KM substrate by immunoprecipitated HA-MEK5 [1] | ERK5 immunoprecipitation (IP) kinase assay: 32P phosphorylation of GST-MEF2C [2]
1 | B1 | AdMEK5DD produced a constitutively active kinase | 
2 | B2 | Some kinase activity was also observed with the AdMEK5WT virus | 
3 | B3 |  | Phosphorylation of GST-MEF2C indicated that ERK5 was activated 2-4 fold by hypertrophic agents
